In patent US12582683B2, “Prostate neoantigens and their uses” (Jansen Biotech, Inc., priority 2019, dated 2026):

What was measured:
HLA-A*03:01 = HLA-A*03:01 (Homo sapiens, UniProt P04439); experiment: In vitro binding of neoantigens to class I MHC (UV peptide exchange, HLA class I ELISA); details: 100% = same binding affinity as positive control peptide
Experimental: (§1) In Vitro Binding of Neoantigens to Class I MHC
(§2) The 9 mer peptides identified by bioinformatics analysis were analyzed for their binding propensities to 6 common HLA class I alleles (HLA-A*01:01, A*02:01, A*03:01, A*24:02, B*07:02, B*08:01). The principle of the method is briefly described below and consists of two parts, one involving exchange of peptide with a positive control induced by Ultraviolet (UV) radiation, and the second is an enzyme immunoassay to detect stable HLA-peptide and empty HLA complexes.
(§3) HLA-bound peptides are critical for the stability of the HLA complex.
(§4) The exchange efficiency between the peptide of interest and Pos was analyzed using an HLA class I ELISA. The combined technologies allowed the identification of ligands for an HLA molecule of interest which are potentially immunogenic.
(§5) The UV control represented UV-irradiation of conditional HLA class I complex in the absence of a rescue peptide. […] To this end streptavidin was bound onto polystyrene microtiter wells. After washing and blocking, HLA complex present in exchange reaction mixtures or ELISA controls was captured by the streptavidin on the microtiter plate via its biotinylated heavy chain. Non-bound material was removed by washing. Subsequently, horseradish peroxidase (HRP)-conjugated antibody to human B2M was added. […] In the latter case B2M was removed during the washing step. After removal of non-bound HRP conjugate by washing, a substrate solution was added to the wells. A coloured product formed in proportion to the amount of intact HLA complex present in the samples. After the reaction was terminated by the addition of a stop solution, absorbance was measured in a microtiter plate reader. […] Suboptimal HLA binding of peptides with a moderate to low affinity for HLA class I molecules can also be detected by this ELISA technique (Rodenko, B et al. (2006) Nature Protocols 1: 1120-32).
(§6) Binding of select neoepitopes to HLA-A*01:01, HLA-A* 02:01, HLA-A* 03:01, HLA-A*24:02, HLA-1B*07:02 and HLA-1B*08:01 was evaluated using the assay described in Example 1. […] As a criterion for further evaluation, peptides with an exchange rate of at least 10% with the corresponding Pos peptide for at least one of the 6 HLA alleles that we considered for further evaluation. […] Higher percentages correspond to stronger binding to the HLA allele.

HLA-A*01:01 = HLA-A*01:01 (Homo sapiens, UniProt P04439, A114D/A174V/A182V/D101N/D185E/E176A/E190D/L180R/Q94H/R68K/S129P/T187R/V100A/V91M/W191G); experiment: as above; details: 100% = same binding affinity as positive control peptide
Experimental: as §1, §2, §3, §4, §5, §6

HLA-A*02:01 = HLA-A*02:01 (Homo sapiens, UniProt P04439, D140Y/D185E/D98H/E176V/E277Q/G131W/G231S/I119V/I121R/I166T/I218V/L300P/L318F/N151K/N90K/P208A/P217A/Q86G/Q94H/R138H/R169H/T345S); experiment: as above; details: 100% = same binding affinity as positive control peptide
Experimental: as §1, §2, §3, §4, §5, §6

HLA-A*24:02 = HLA-A*24:02 (Homo sapiens, UniProt P04439, D101N/D140Y/D185E/E176V/E190D/F33S/G103R/G107R/I119L/I121M/I306V/K335N/L105A/L180Q/L300P/N151K/N90K/Q86E/Q94H/R106L/R138H/R89G/T104I/T345S/V100E/W191G/Y123F); experiment: as above; details: 100% = same binding affinity as positive control peptide
Experimental: as §1, §2, §3, §4, §5, §6

HLA-B*07:02 = HLA-B*07:02 (Homo sapiens, UniProt P01889); experiment: as above; details: 100% = same binding affinity as positive control peptide
Experimental: as §1, §2, §3, §4, §5, §6

[1] = system: CD8+ T cells in PBMCs from patients with metastatic castrate-resistant prostate cancer; experiment: Patient PBMC restimulation assay (in vitro immunogenicity of neoantigens); assay type: cell-based, human; parameters: Maximum frequency of TNFα+IFNγ+CD8+ T cells: unit not given here; details: for Maximum fold change over: fold change over negative control, highest across the PBMC donors evaluated, 9 mer peptide; for Maximum frequency of TNFα+IFNγ+CD8+ T cells: greatest frequency among all tested PBMC donors, negative control 0.011-0.8
Experimental: In Vitro Immunogenicity Assessment of Neoantigens (“Patient PBMC Restimulation Assay”)
PBMCs from human patients with metastatic castrate-resistant prostate cancer were thawed using media (RPMI 1640 supplemented with Glutamax, 10% HI FBS, and 1× Sodium Pyruvate). Cells were counted and plated in a 96 well round bottom microplate at a concentration of 250,000 viable cells per well. Lyophilized peptides were solubilized in 100% DMSO and diluted in media to 10 μg/mL. Neoantigen peptides were added in equal volume to PBMCs for a final concentration of 5 μg/mL. CEF Peptide Pool “Plus” (Cellular Technologies, Ltd.) was utilized as a positive control and DMSO at the same final concentration as the experimental peptides was utilized as a negative control. Human IL-15 (Peprotech) was added to all wells at final concentration of 10 ng/mL.
Plates were incubated at 37° C. (5% CO2) for a total of 13 days. Media was refreshed every 2 days with IL-15 (10 ng/mL final concentration) and IL-2 (R&D systems, 10 IU/mL final concentration). On day 12, PBMCs were re-stimulated with identical experimental peptides or controls, at same concentration as peptide stimulation on Day 1. After 1-hour incubation, protein Inhibitor Cocktail (eBioscience) was added to every well and plate was incubated overnight.
On day 13, cells were stained for intracellular flow cytometry analysis. The cells were washed with PBS and stained with Live/Dead Fixable Aqua Dead Cell stain (Thermo-Fisher). Following the live/dead stain, cells were blocked using Biotin-Free Fe Receptor Blocker (Accurate Chemical & Scientific Corp). Extracellular cellular flow panel (1 μL/antibody per well in 50 μL) consisted of CD3 PerCP-Cy5.5 (Biolegend), CD4 BV421 (Biolegend), and CD8 APC-Cy7 (Biolegend). After extracellular staining, cells were fixed using Foxp3/Transcription Factor Staining Buffer Set (eBioscience) and stained for intracellular proteins (1:50 dilution) using TNFα FITC (R&D Systems) and IFNγ BV785 (Biolegend). Cells were washed and resuspended in stain buffer and analyzed using a BD Celesta flow cytometer.
Flow cytometry cell staining analysis was completed using FlowJo v10. Cells were gated on live, singlet, CD3+ cells. The CD8+ T cells were analyzed for TNFα/IFNγ expression and the frequency of double positive TNFα/IFNγ CD8+ T cells was recorded. Responses were assessed to be positive when the frequency of double positive TNFα/IFNγ CD8+ T cells due to stimulation with an experimental peptide was increased greater than or equal to 2-fold over the DMSO only negative control for that patient. Peptides were analyzed in 1 to 7 patient samples.
The 9 mer fragments shown in Table 13 were assessed for their ability to activate T cells using the Patient PBMC restimulation assay described in Example 1 using TNFα and IFNγ production by CD8^+ T cells as a readout. Self-antigens shown in Table 15 were also used in the assays. […] PBMCs from ten patients were evaluated.

| Molecule | Exchange rate with Pos peptide, HLA-A*03:01 (HLA-A*03:01) | Exchange rate with Pos peptide, HLA-A*01:01 (HLA-A*01:01) | Exchange rate with Pos peptide, HLA-A*02:01 (HLA-A*02:01) | Exchange rate with Pos peptide, HLA-A*24:02 (HLA-A*24:02) | Exchange rate with Pos peptide, HLA-B*07:02 (HLA-B*07:02) | Maximum fold change over [1] | Maximum frequency of TNFα+IFNγ+CD8+ T cells [1] | Immunogenic ([1]; patient PBMC restimulation, CD8+ T cells) |
| --- | --- | --- | --- | --- | --- | --- | --- | --- |
| CYLRRQKRLKCEKQPGA (listed as Homo sapiens) [Neoantigen P60, FOXA1.p.F266L] | 36.6% | 3.1% | 7.9% | 0.9% | 6.1% | 2.08 | 0.340 | – |
| DDRNTFDIVWWCPMSRLRLALTVPPSTTTTCVTVPAWAA [P46] (listed as Homo sapiens) [Neoantigen P46, TP53 (R213D)] | 10.3% | – | 14.4% | −0.4% | 64.8% | 2.33 | 0.140 | – |
| DSSGNLLERNSFEVRV (listed as Homo sapiens) [Neoantigen P73, TP53 (G266E)] | 3.5% | 2.1% | 89.2% | 0.5% | 8.7% | 2.97 | 0.110 | – |
| GVPGDSTRRAVRRMNTF [P17] (listed as Homo sapiens) [Neoantigen P17, MSMB-NOCA4] | 3.8% | 4.9% | – | 0.1% | 38.7% | – | 0.130 | – |
| GYLRMQGLMAQRLLLR (listed as Homo sapiens) [Neoantigen P97, FOXRED2-TXN2] | 39% | 2.5% | 4.6% | 0.1% | 7% | 4.55 | 0.160 | – |
| LHPDSGNMVENGCYLRR (listed as Homo sapiens) [Neoantigen P59, FOXA1 (F254V)] | – | – | – | – | – | 10.75 | 3.010 | – |
| LHPQRETFTPRWSGANYWKLAFPVGAEGTFPAAATQRGVVRPA (listed as Homo sapiens) [Neoantigen P27, FAM126B-ORC2] | – | – | – | – | – | 3.43 | 0.430 | – |
| MAGGVLRRLLCREPDRDGDKGASREETVVPLHIGDPVVLPGIGQCYSALF (listed as Homo sapiens) [Neoantigen P37, TSTD1-F11R] | – | – | – | – | – | 3.13 | 1.160 | – |
| MFENGCYLGRQKRFKCE (listed as Homo sapiens) [Neoantigen P61, FOXAl.p.R261G] | 2.1% | 1.7% | 5.8% | 90.3% | – | – | 0.084 | – |
| MMAEHSVHVPKILSGK (MMAEIISVHVPKILSGK; listed as Homo sapiens) [Neoantigen P58, AR (Q903H)] | 32.5% | 2.5% | 11.8% | 0.2% | – | – | 5.370 | – |
| NSKMALNSLNSIDDAQLTRIAPPRSHCCFWEVNAP (listed as Homo sapiens) [Neoantigen P35, TMPRSS2-ERG] | – | – | – | – | – | 2.67 | 0.064 | – |
| PKSEVRAKCKFSILNAK (listed as Homo sapiens) [Neoantigen P56, SPOP (F102C)] | 6.8% | 2.6% | 8.4% | 0.5% | 82.5% | 11.57 | 1.620 | – |
| QMAVIQYSCMGLMVFAM (listed as Homo sapiens) [Neoantigen P50, AR (W742C)] | – | – | – | – | – | 5.14 | 0.190 | – |
| VFFKRAAEGFFRMNKLKESSDTNPKPYCMAAPMGLTENNRNRKKSYRETNLKAVSWPLNHT [P77] (peptide, listed as Homo sapiens, AR-V3) VFFKRAAEGFFRMNKLKESSDTNPKPYCMAAPMGLTENNRNRKKSYRETNLKAVSWPLNHT | – | – | – | – | – | 3.24 | 0.160 | Yes |
